Paper PMC9482650, “Quantitative fragmentomics allow affinity mapping of interactomes” (Nature Communications, 2022)

Assays:
Assay in all cases: holdup assay
Parameters in all cases: key: below the threshold = too weak to quantify, mostly under pKd 3.1 to 4
[1] = target: T1, PDZD7_3, Q9H5P4
T1 sequence (Q9H5P4 857-944, limits assumed, looked up): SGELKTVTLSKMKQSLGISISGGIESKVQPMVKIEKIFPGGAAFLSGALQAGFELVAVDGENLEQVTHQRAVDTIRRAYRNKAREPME

[2] = target: T2, PCLO, Q9Y6V0
T2 sequence (Q9Y6V0 4491-4600, limits assumed, looked up): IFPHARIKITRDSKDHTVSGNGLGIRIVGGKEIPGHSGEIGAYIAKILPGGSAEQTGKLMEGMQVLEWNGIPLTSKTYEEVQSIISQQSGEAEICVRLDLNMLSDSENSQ

[3] = target: FRMPD2_2, Q68DX3
Chain of FRMPD2_2, Q68DX3 (Q68DX3 944-1038): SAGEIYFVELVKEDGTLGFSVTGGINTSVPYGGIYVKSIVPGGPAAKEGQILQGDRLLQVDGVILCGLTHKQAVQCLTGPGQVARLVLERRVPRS

[4] = target: T3, APBA1_2, Q02410
T3 sequence (Q02410 742-832, limits assumed, looked up): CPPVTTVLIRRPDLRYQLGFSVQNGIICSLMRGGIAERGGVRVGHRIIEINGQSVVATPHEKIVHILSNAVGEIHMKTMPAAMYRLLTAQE

[5] = target: T4, APBA3_1, O96018
T4 sequence (O96018 389-490, limits assumed, looked up): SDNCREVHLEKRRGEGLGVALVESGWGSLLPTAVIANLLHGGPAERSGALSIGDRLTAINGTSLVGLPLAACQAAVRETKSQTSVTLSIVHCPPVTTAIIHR

[6] = target: Inadl_6, Q8NI35
Chain of Inadl_6, Q8NI35 (Q8NI35 1058-1167): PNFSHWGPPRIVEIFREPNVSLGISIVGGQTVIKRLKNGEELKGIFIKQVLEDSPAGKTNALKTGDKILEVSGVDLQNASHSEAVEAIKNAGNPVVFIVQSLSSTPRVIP

[7] = target: DLG1_2, Q12959
Chain of DLG1_2, Q12959 (Q12959 314-412): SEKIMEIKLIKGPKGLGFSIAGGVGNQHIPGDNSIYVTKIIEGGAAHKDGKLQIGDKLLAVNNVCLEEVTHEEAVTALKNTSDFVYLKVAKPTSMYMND

[8] = target: T5, MPDZ_12, O75970
T5 sequence (O75970 1857-1958, limits assumed, looked up): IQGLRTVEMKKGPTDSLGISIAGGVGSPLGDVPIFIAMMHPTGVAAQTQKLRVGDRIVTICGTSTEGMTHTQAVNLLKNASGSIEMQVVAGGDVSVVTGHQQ

[9] = target: Inadl_4, Q8NI35
Chain of Inadl_4, Q8NI35 (Q8NI35 547-651): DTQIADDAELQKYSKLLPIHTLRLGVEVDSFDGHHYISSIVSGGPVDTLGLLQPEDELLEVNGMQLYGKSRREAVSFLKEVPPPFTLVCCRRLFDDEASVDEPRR

[10] = target: FRMPD2_3, Q68DX3
Chain of FRMPD2_3, Q68DX3 (Q68DX3 1073-1166): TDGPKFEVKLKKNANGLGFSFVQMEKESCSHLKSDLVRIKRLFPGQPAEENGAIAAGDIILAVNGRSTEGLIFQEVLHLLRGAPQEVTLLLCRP

[11] = target: MAGI2_4, Q86UL8
Chain of MAGI2_4, Q86UL8 (Q86UL8 772-865): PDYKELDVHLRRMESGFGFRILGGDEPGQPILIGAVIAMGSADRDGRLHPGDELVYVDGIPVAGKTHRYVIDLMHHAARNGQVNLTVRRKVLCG

[12] = target: CASK, O14936
Chain of CASK, O14936 (O14936 487-570): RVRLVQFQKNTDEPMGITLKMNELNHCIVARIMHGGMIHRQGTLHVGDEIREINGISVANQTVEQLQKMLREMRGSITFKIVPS

[13] = target: T6, PTPN13_1, Q12923
T6 sequence (Q12923 1088-1188, limits assumed, looked up): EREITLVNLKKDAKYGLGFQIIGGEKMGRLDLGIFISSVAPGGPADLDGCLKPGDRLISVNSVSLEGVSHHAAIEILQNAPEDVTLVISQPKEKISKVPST

[14] = target: T7, GRIP1_3, Q9Y3R0
T7 sequence (Q9Y3R0 247-346, limits assumed, looked up): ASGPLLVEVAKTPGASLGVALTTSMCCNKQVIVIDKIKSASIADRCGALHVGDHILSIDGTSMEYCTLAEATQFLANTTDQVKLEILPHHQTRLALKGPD

[15] = target: T8, DFNB31_1, Q9P202
T8 sequence (Q9P202 135-233, limits assumed, looked up): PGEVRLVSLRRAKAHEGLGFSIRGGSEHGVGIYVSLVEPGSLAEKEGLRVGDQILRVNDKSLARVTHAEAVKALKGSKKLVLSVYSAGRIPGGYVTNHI

[16] = target: T9, GRIP1_4, Q9Y3R0
T9 sequence (Q9Y3R0 467-571, limits assumed, looked up): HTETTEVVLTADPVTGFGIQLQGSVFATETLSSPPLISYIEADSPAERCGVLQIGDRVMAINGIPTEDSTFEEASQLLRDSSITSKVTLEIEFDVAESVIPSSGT

[17] = target: T10, PARD3B_1, Q8TEW8
T10 sequence (Q8TEW8 196-299, limits assumed, looked up): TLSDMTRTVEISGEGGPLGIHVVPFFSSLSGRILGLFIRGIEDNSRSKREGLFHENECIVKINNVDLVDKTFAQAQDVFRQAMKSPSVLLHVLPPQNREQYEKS

[18] = target: T11, DLG3_2, Q92796
T11 sequence (Q92796 221-321, limits assumed, looked up): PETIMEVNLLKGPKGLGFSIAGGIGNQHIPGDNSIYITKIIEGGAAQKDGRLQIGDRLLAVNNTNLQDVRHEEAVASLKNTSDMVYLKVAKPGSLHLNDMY

[19] = target: GIPC2, Q8TF65
Chain of GIPC2, Q8TF65 (Q8TF65 112-203): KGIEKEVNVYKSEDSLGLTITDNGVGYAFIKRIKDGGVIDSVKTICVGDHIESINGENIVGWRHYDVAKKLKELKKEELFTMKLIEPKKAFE

[20] = target: T12, MPP6, Q9NZW5
T12 sequence (Q9NZW5 125-219, limits assumed, looked up): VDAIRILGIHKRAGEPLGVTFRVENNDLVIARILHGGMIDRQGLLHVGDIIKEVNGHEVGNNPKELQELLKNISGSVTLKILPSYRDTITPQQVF

[21] = target: T13, SHANK1, Q9Y566
T13 sequence (Q9Y566 658-767, limits assumed, looked up): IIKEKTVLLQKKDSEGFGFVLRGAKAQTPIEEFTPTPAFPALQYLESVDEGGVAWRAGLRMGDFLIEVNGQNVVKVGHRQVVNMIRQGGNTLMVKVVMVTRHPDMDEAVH

[22] = target: LAP2, Q96RT1
Chain of LAP2, Q96RT1 (Q96RT1 other isoform, or with tags, fused parts or gaps): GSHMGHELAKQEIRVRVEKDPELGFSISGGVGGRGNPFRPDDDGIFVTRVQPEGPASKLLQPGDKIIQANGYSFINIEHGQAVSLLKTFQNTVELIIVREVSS

[23] = target: TJP1_2, Q07157
Chain of TJP1_2, Q07157 (Q07157 181-274): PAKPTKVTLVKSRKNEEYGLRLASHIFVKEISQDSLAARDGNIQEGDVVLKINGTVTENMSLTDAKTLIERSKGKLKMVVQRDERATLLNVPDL

[24] = target: NHERF2_2, Q15599
Chain of NHERF2_2, Q15599 (Q15599 142-238): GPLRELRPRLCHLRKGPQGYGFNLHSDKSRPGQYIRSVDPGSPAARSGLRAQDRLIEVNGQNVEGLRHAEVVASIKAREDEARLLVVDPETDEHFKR

[25] = plain residues with an end cap or a label only (N-terminal biotin on a linker: ttds)
[26] = plain residues with an end cap or a label only (N-terminal biotin on a linker: ahx)

Question: How did the pKd [1, 25] turn out when TEEEVQDTRL [CFTR, P13569] was run?
Answer: 4.23

Question: And the pKd [2, 25]?
Answer: below the threshold

Question: What about the pKd [3, 25] of the same binder?
Answer: below the threshold

Question: And the pKd [4, 25]?
Answer: below the threshold

Question: And the pKd [5, 25]?
Answer: below the threshold

Question: What about the pKd [6, 25] of the same binder?
Answer: below the threshold

Question: And the pKd [7, 25]?
Answer: below the threshold

Question: What about the pKd [8, 25] of the same binder?
Answer: below the threshold

Question: What about the pKd [9, 25] of the same binder?
Answer: below the threshold

Question: And the pKd [10, 25]?
Answer: below the threshold

Question: What about the pKd [11, 25] of the same binder?
Answer: below the threshold

Question: What about the pKd [12, 25] of the same binder?
Answer: below the threshold

Question: What about the pKd [13, 25] of the same binder?
Answer: below the threshold

Question: What about the pKd [14, 25] of the same binder?
Answer: below the threshold

Question: And the pKd [15, 25]?
Answer: 3.79

Question: And the pKd [16, 25]?
Answer: below the threshold

Question: And the pKd [17, 25]?
Answer: 3.95

Question: And the pKd [18, 25]?
Answer: below the threshold

Question: And the pKd [19, 25]?
Answer: below the threshold

Question: What about the pKd [20, 25] of the same binder?
Answer: below the threshold

Question: And the pKd [21, 25]?
Answer: 5.07

Question: And the pKd [22, 25]?
Answer: below the threshold

Question: What about the pKd [23, 25] of the same binder?
Answer: below the threshold

Question: What does the source list for DEDQHTQITKV [PTEN, P60484]?
Answer: pKd [1, 25]: 5.1; pKd [2, 25]: below the threshold; pKd [3, 25]: 4.19; pKd [4, 25]: 4.02; pKd [5, 25]: below the threshold; pKd [6, 25]: 3.82; pKd [7, 25]: 3.97; pKd [8, 25]: below the threshold; pKd [9, 25]: below the threshold; pKd [10, 25]: below the threshold; pKd [11, 25]: 3.64; pKd [12, 25]: 3.47; pKd [13, 25]: below the threshold; pKd [14, 25]: below the threshold; pKd [15, 25]: 3.86; pKd [16, 25]: below the threshold; pKd [17, 25]: 3.72; pKd [18, 25]: 4.04; pKd [20, 25]: below the threshold; pKd [21, 25]: 4.35; pKd [24, 25]: 4.29; pKd [22, 25]: 3.82; pKd [23, 25]: below the threshold

Question: For LCKSHAFSHV [PDLIM7, Q9NR12;Q9NR12-1], which pKd [1, 26] is on record?
Answer: below the threshold

Question: And the pKd [2, 26]?
Answer: below the threshold

Question: And the pKd [3, 26]?
Answer: below the threshold

Question: What about the pKd [5, 26] of the same binder?
Answer: below the threshold

Question: And the pKd [6, 26]?
Answer: below the threshold

Question: And the pKd [8, 26]?
Answer: below the threshold

Question: What about the pKd [9, 26] of the same binder?
Answer: below the threshold

Question: What about the pKd [10, 26] of the same binder?
Answer: below the threshold

Question: And the pKd [11, 26]?
Answer: below the threshold

Question: What about the pKd [12, 26] of the same binder?
Answer: below the threshold

Question: What about the pKd [13, 26] of the same binder?
Answer: below the threshold

Question: And the pKd [14, 26]?
Answer: below the threshold

Question: And the pKd [15, 26]?
Answer: below the threshold

Question: And the pKd [16, 26]?
Answer: below the threshold

Question: What about the pKd [17, 26] of the same binder?
Answer: below the threshold

Question: What about the pKd [18, 26] of the same binder?
Answer: below the threshold

Question: What about the pKd [20, 26] of the same binder?
Answer: below the threshold

Question: What about the pKd [21, 26] of the same binder?
Answer: below the threshold

Question: What about the pKd [24, 26] of the same binder?
Answer: below the threshold

Question: What about the pKd [22, 26] of the same binder?
Answer: below the threshold

Question: What about the pKd [23, 26] of the same binder?
Answer: below the threshold

Question: Which results are given for KKNKDKEYYV [NRXN1, Q9ULB1]?
Answer: pKd [1, 26]: below the threshold; pKd [2, 26]: below the threshold; pKd [3, 26]: below the threshold; pKd [4, 26]: 3.62; pKd [5, 26]: below the threshold; pKd [6, 26]: below the threshold; pKd [7, 26]: below the threshold; pKd [8, 26]: below the threshold; pKd [9, 26]: below the threshold; pKd [10, 26]: 4.17; pKd [11, 26]: below the threshold; pKd [12, 26]: below the threshold; pKd [13, 26]: below the threshold; pKd [14, 26]: below the threshold; pKd [15, 26]: below the threshold; pKd [16, 26]: below the threshold; pKd [17, 26]: below the threshold; pKd [18, 26]: below the threshold; pKd [19, 26]: below the threshold; pKd [20, 26]: below the threshold; pKd [21, 26]: below the threshold; pKd [24, 26]: below the threshold; pKd [22, 26]: below the threshold; pKd [23, 26]: below the threshold

Question: With CLDTSRETDL [KCNA5, P22460] as the binder, how does the pKd [1, 25] read?
Answer: 4.05

Question: What about the pKd [2, 25] of the same binder?
Answer: below the threshold

Question: And the pKd [3, 25]?
Answer: below the threshold

Question: And the pKd [4, 25]?
Answer: below the threshold

Question: And the pKd [5, 25]?
Answer: below the threshold

Question: What about the pKd [6, 25] of the same binder?
Answer: 3.93

Question: And the pKd [7, 25]?
Answer: 4.79

Question: And the pKd [8, 25]?
Answer: below the threshold

Question: And the pKd [9, 25]?
Answer: below the threshold

Question: What about the pKd [10, 25] of the same binder?
Answer: below the threshold

Question: And the pKd [11, 25]?
Answer: below the threshold

Question: What about the pKd [12, 25] of the same binder?
Answer: below the threshold

Question: What about the pKd [13, 25] of the same binder?
Answer: below the threshold

Question: And the pKd [14, 25]?
Answer: 3.66

Question: What about the pKd [15, 25] of the same binder?
Answer: 3.84

Question: And the pKd [16, 25]?
Answer: below the threshold

Question: And the pKd [17, 25]?
Answer: below the threshold

Question: And the pKd [18, 25]?
Answer: 4.35

Question: What about the pKd [19, 25] of the same binder?
Answer: below the threshold

Question: And the pKd [20, 25]?
Answer: below the threshold

Question: And the pKd [21, 25]?
Answer: 3.5

Question: And the pKd [24, 25]?
Answer: 4.49

Question: What about the pKd [22, 25] of the same binder?
Answer: 3.5

Question: What about the pKd [23, 25] of the same binder?
Answer: below the threshold

Question: Which results are given for EDEDEQVSAV [RAPGEF2, Q9Y4G8]?
Answer: pKd [1, 26]: 3.87; pKd [2, 26]: below the threshold; pKd [3, 26]: 5.03; pKd [4, 26]: 3.65; pKd [5, 26]: below the threshold; pKd [6, 26]: 3.81; pKd [7, 26]: 3.85; pKd [8, 26]: below the threshold; pKd [9, 26]: below the threshold; pKd [10, 26]: below the threshold; pKd [11, 26]: below the threshold; pKd [12, 26]: below the threshold; pKd [13, 26]: below the threshold; pKd [14, 26]: below the threshold; pKd [15, 26]: below the threshold; pKd [16, 26]: below the threshold; pKd [17, 26]: below the threshold; pKd [18, 26]: 3.87; pKd [19, 26]: 3.81; pKd [20, 26]: below the threshold; pKd [21, 26]: 4.28; pKd [24, 26]: 3.68; pKd [22, 26]: 3.62; pKd [23, 26]: below the threshold
